According to publication PMC3496014:

What was measured:
[1] = biological target: MBP-PfAtg3 (P. falciparum 3D7) (UniProt C0H519); assay: pull-down
[2] = biological target: MBP-PfAtg3 W105A (P. falciparum 3D7) (UniProt C0H519); assay: pull-down
[3] = biological target: MBP-PfAtg3 (P. falciparum 3D7) (UniProt C0H519); assay: SPR

Row | Substance | reduction of binding against wild type [1] [%] | decrease of binding against wild type [2] [%] | Kd [3] [nM]
1 | His6-PfAtg8 with deletion of residues 68 to 76 (from UniProt Q8IJK2 1-124) (natural protein) | 80 |  | 
2 | His6-PfAtg8^CM (cysteine mutant C37I, C119S, C122S) (from UniProt Q8IJK2 1-124) (natural protein) |  | 35 | 326
